Laboratory results reported in paper PMC12164381.

Tests used:
Assay in all cases: SPR
[1] = target: SARS-CoV-2 Spike RBD, original (Wuhan) strain (SARS-CoV-2, original Wuhan strain) (UniProt P0DTC2)
[2] = target: Inverse folding design from the DXP-604 starting point (Table 5, design row 6, the 5th table, row 9)
S309 = target: S309
[3] = target: OAS scanning design from the DXP-604 starting point (Table 2, 1st design row, the 2nd table, row 8)
[4] = target: Inverse folding design from the DXP-604 starting point (Table 5, design row 3, the 5th table, row 6)
[5] = target: Efficient evolution design from the S309 starting point (Table 4, design row 1, the 4th table, row 4)
[6] = target: Inverse folding design from the DXP-604 starting point (Table 5, design row 5, the 5th table, row 8)
[7] = target: Inverse folding design from the DXP-604 starting point (Table 5, design row 1, the 5th table, row 4)
[8] = target: Inverse folding design from the DXP-604 starting point (Table 5, design row 4, the 5th table, row 7)
[9] = target: Inverse folding design from the DXP-604 starting point (Table 5, design row 7, the 5th table, row 10)
[10] = target: Inverse folding design from the DXP-604 starting point (Table 5, design row 2, the 5th table, row 5)
[11] = target: Efficient evolution design from the S309 starting point (Table 4, design row 5, the 4th table, row 8)
[12] = target: Inverse folding design from the LY-CoV1404 starting point (Table 5, design row 2, the 5th table, row 13)
[13] = target: Inverse folding design from the LY-CoV1404 starting point (Table 5, design row 1, the 5th table, row 12)
DXP-604 = target: DXP-604
[14] = target: Efficient evolution design from the S309 starting point (Table 4, design row 2, the 4th table, row 5)
BD55–5840 = target: BD55–5840
[15] = target: OAS scanning design from the DXP-604 starting point (Table 2, 2nd design row, the 2nd table, row 9)
[16] = target: Efficient evolution design from the S309 starting point (Table 4, design row 6, the 4th table, row 9)
[17] = target: Efficient evolution design from the S309 starting point (Table 4, design row 3, the 4th table, row 6)

DXP-604 (antibody)
pKD [1]: 9.67 -log10(KD)

SARS-CoV-2 Spike RBD, XBB.1 strain (from UniProt P0DTC2) (domain or fragment)
pKD [2]: 6.37 -log10(KD) | pKD (S309): 8.93 -log10(KD) | pKD [3]: 5.35 -log10(KD) | pKD [4]: 5.12 -log10(KD) | pKD [5]: 8.7 -log10(KD) | pKD [6]: 5.91 -log10(KD) | pKD [7]: 5.78 -log10(KD) | pKD [8]: 5.84 -log10(KD) | pKD [9]: 6.15 -log10(KD) | pKD [10]: 5.99 -log10(KD)

SARS-CoV-2 Spike RBD, XBB.1.5 strain (from UniProt P0DTC2) (domain or fragment)
pKD [11]: 9.12 -log10(KD) | pKD [12]: 4.88 -log10(KD) | pKD [3]: 5.87 -log10(KD) | pKD [5]: 8.89 -log10(KD) | pKD [13]: 4.87 -log10(KD) | pKD (DXP-604): 5.84 -log10(KD) | pKD [14]: 8.93 -log10(KD) | pKD (BD55–5840): 6.14 -log10(KD)

SARS-CoV-2 Spike RBD, original (Wuhan) strain (from UniProt P0DTC2) (domain or fragment)
pKD [15]: 9.38 -log10(KD) | pKD [3]: 9.07 -log10(KD) | pKD [16]: 8.7 -log10(KD) | pKD [5]: 8.7 -log10(KD) | pKD [17]: 8.7 -log10(KD)
